Reference: article PMC13043311, “2′-O-Methyl-guanosine RNA fragments antagonize TLR7 and TLR8 to limit autoimmunity”
Substitutions are numbered along the chain they refer to.

Tests used:
[1] = molecular target: Macaca mulatta TLR7 (mmTLR7) ectodomain (Macaca mulatta); assay: cryo-EM structure; TLR7 in complex with mGrArA^PS (mixture of four PS stereoisomers); resolution 2.7 Å
[2] = molecular target: Macaca mulatta TLR7 (mmTLR7) ectodomain (Macaca mulatta); assay: cryo-EM structure; mmTLR7 ectodomain in the presence of GUC-v1^PS (mGmUdC^PS, mixture of RR, RS, SR and SS configurations); overall resolution 3.0 Å
[3] = molecular target: Macaca mulatta TLR7 (mmTLR7) ectodomain (Macaca mulatta); assay: cryo-EM structure; TLR7 in complex with mGrUrC^PO; resolution 2.9 Å
TLR7 WT (mmTLR7) [4] = molecular target: T1, TLR7 WT (mmTLR7) (Macaca mulatta, UniProt B3Y653 27-839); assay: SPR; average; runs 7±2, 7±1, 6±1, 4±2, 4±2; SPR with recombinant TLR7/TLR8; buffer, pH and temperature not in the material; conditions: protein: recombinant; chain copies: 2; single-stranded
T1 sequence: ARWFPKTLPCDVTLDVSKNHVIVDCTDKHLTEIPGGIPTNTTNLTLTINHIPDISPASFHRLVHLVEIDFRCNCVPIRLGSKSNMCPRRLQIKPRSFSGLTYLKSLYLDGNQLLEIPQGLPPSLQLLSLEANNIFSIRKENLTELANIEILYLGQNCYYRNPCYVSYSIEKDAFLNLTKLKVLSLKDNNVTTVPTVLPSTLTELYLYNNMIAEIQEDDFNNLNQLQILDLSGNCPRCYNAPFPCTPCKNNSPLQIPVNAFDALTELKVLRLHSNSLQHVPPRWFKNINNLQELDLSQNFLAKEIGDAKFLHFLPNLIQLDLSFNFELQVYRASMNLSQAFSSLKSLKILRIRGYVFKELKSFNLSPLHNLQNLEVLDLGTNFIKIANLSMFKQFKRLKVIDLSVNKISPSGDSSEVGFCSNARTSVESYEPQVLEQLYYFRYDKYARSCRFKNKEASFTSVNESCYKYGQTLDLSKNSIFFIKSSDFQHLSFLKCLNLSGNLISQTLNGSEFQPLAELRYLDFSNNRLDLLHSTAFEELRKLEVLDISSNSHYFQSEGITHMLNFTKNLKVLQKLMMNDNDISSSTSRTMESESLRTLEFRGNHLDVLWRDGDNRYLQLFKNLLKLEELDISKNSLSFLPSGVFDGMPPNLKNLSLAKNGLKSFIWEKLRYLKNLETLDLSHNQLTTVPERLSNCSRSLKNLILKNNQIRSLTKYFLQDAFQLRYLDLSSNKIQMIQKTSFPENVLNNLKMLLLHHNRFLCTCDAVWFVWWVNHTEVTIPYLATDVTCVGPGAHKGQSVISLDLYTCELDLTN

TLR8 WT (hTLR8) [5] = molecular target: T2, TLR8 WT (hTLR8) (human, UniProt Q9NR97 27-827); assay: SPR; not detected; SPR with recombinant TLR7/TLR8; buffer, pH and temperature not in the material; conditions: protein: recombinant; chain copies: 2; single-stranded
T2 sequence: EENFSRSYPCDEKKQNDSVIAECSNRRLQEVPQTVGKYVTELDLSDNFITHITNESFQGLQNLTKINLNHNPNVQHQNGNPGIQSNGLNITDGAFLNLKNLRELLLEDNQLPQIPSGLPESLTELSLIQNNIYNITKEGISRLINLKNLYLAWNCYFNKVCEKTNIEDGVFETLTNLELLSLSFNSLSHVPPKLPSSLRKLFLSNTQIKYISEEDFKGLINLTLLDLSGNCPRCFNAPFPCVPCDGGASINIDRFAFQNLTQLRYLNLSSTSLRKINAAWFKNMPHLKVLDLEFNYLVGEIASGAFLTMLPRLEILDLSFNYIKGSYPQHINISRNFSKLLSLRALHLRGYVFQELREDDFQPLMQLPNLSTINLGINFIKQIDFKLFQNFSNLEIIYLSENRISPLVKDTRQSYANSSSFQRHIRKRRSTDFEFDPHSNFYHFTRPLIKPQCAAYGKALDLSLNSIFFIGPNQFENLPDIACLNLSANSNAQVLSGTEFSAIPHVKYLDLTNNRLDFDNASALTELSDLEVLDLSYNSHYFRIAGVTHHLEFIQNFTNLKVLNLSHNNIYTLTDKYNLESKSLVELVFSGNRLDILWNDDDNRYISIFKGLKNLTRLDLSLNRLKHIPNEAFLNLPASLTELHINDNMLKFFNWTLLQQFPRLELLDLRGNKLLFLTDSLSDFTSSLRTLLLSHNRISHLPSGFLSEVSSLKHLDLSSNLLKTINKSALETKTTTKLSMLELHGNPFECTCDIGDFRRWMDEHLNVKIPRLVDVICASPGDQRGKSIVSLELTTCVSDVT

TLR8 WT (hTLR8) [6] = molecular target: T2, TLR8 WT (hTLR8); assay: SPR; average; runs 3±1, 4±1, 5±1, 3±0.4, 4±1, 4±1; SPR with recombinant TLR7/TLR8; buffer, pH and temperature not in the material; conditions: protein: recombinant; chain copies: 2; single-stranded
TLR7 WT (mmTLR7) [7] = molecular target: T1, TLR7 WT (mmTLR7); assay: SPR; average stated in text; table runs 38±2, 32±2, 30±1, 20±11, 11±1 (mean 26.2); SPR with recombinant TLR7/TLR8; buffer, pH and temperature not in the material; conditions: protein: recombinant; chain copies: 2; single-stranded
TLR8 I403S = molecular target: T3, TLR8 I403S (human, UniProt Q9NR97 27-827, I403S); assay: SPR; mean computed from runs 7.6±0.5, 9.7±0.9, 7.5±0.3; SPR with recombinant TLR7/TLR8; buffer, pH and temperature not in the material; conditions: protein: recombinant; chain copies: 2; single-stranded
T3 sequence: T2 sequence with I377S

TLR8 WT (hTLR8) [8] = molecular target: T2, TLR8 WT (hTLR8); assay: SPR; control of the nucleoside series; mean computed from runs 1.4±0.9, 1.5±0.09, 1.6±0.1; SPR with recombinant TLR7/TLR8; buffer, pH and temperature not in the material; conditions: protein: recombinant; chain copies: 2; single-stranded
TLR7 WT (mmTLR7) [9] = molecular target: T1, TLR7 WT (mmTLR7); assay: cryo-EM; stereoisomer mixture, modeled as SS; 2.7 A; buffer, pH and temperature not in the material; conditions: protein: recombinant; chain copies: 2; single-stranded
TLR8 WT (hTLR8) [10] = molecular target: T2, TLR8 WT (hTLR8); assay: SPR; mean computed from runs 1.8±0.2, 1.8±0.2, 1.5±0.2; SPR with recombinant TLR7/TLR8; buffer, pH and temperature not in the material; conditions: protein: recombinant; chain copies: 2; single-stranded
TLR8 F495S = molecular target: T4, TLR8 F495S (human, UniProt Q9NR97 27-827, F495S); assay: SPR; no binding observed; SPR with recombinant TLR7/TLR8; buffer, pH and temperature not in the material; conditions: protein: recombinant; chain copies: 2; single-stranded
T4 sequence: T2 sequence with F469S

TLR8 WT (hTLR8) [11] = molecular target: T2, TLR8 WT (hTLR8); assay: SPR; negligible binding; SPR with recombinant TLR7/TLR8; buffer, pH and temperature not in the material; conditions: protein: recombinant; chain copies: 2; single-stranded
TLR7 WT (mmTLR7) [12] = molecular target: T1, TLR7 WT (mmTLR7); assay: as above; conditions: protein: recombinant; chain copies: 2; single-stranded
TLR8 WT (hTLR8) [13] = molecular target: T2, TLR8 WT (hTLR8); assay: SPR; average; runs 5±1, 7±1, 5±1, 12±3, 7±1, 11±2; SPR with recombinant TLR7/TLR8; buffer, pH and temperature not in the material; conditions: protein: recombinant; chain copies: 2; single-stranded

Macaca mulatta TLR7 (mmTLR7) ectodomain (receptor)
stoichiometry N [1]: 2 | stoichiometry N [2]: 2 | stoichiometry N [3]: 2

GUC (XNA, 2'-OMe G1, 2'-OMe U2, DNA C3; phosphorothioate linkages, stereo-random) [GUC-v1 PS (mGmUdC)]
Kd (TLR7 WT (mmTLR7) [4]): 5.6 µM | binding result (TLR8 WT (hTLR8) [5]): no binding

GAG (XNA, 2'-OMe G1, 2'-OMe A2, DNA G3; phosphorothioate linkages, stereo-random) [GAG-v1 PS (mGmAdG)]
Kd (TLR8 WT (hTLR8) [6]): 4 µM | Kd (TLR7 WT (mmTLR7) [7]): 20.2 µM

GAA (XNA, 2'-OMe G1, RNA A2 A3; phosphorothioate linkages, stereo-random) [mGrArA PS]
Kd (TLR8 I403S): 8.27 µM | Kd (TLR8 WT (hTLR8) [8]): 1.5 µM | binding result (TLR7 WT (mmTLR7) [9]): binds | Kd (TLR8 WT (hTLR8) [10]): 1.7 µM | binding result (TLR8 F495S): no binding

GTC (XNA, DNA G1, DNA T2, 2'-OMe C3; phosphorothioate linkages, stereo-random) [GUC-v6 PS (dGdTmC)]
binding result (TLR8 WT (hTLR8) [11]): no binding | binding result (TLR7 WT (mmTLR7) [12]): no binding

GCC (XNA, 2'-OMe G1, DNA C2, DNA C3; phosphorothioate linkages, stereo-random) [GCC-v4 PS (mGdCdC)]
binding result (TLR7 WT (mmTLR7) [12]): no binding | Kd (TLR8 WT (hTLR8) [13]): 8 µM
